We go through one molecule from patent US10441607B1, “Multifunctional linker technology containing an N4 group” (priority 2016, dated 2019).

Each structure is given as a SMILES string.

Series [1] in a line: Biodistribution in AR42J xenografts. The settings on record: mouse, all tissues other than tumor and kidneys, read-out: uptake in all locations other than tumor and kidneys. Format: in vivo, mice.
In a further series the test system is AR42J xenografts. As to the kind of experiment: Biodistribution in AR42J xenografts. Format: in vivo, mice.
Another series deals with AR42J tumor. The series is described as follows: PET/CT imaging of AR42J tumor-bearing mice. Format: in vivo. From the text: PET/CT images (FIG. 6) were taken of AR42J tumor-bearing mice administered ^68Ga-DOTA-TOC (left) and ^68Ga-MMC(5-FU)-TOC (right).
For series [2], the system named is SSTR2-expressing IMR-32 cells. The series is described as follows: Cellular uptake / receptor-mediated binding and octreotide blocking in IMR-32 cells. Format: cell-based. As to the method:
The cellular uptake of compound 7 was compared to another dual-labeled TOC agent, ^64Cu-DA(NIR)-TOC, which was synthesized by sequential N-terminal functionalization of resin-bound TOC with an azide-containing amino acid and DOTA-NHS, in IMR-32 neuroblastoma cells. Agents (30 nM, 1-2 μCi) were added to vials containing 4 million cells and incubated at 4° C. for 1 hr. […] After washing twice with PBS, the cells were collected and bound radioactivity was measured by a γ counter.

Consider `C[C@@H](O)[C@@H]1NC(=O)[C@H](CCCCN)NC(=O)[C@@H](Cc2c[nH]c3ccccc23)NC(=O)[C@H](Cc2ccc(O)cc2)NC(=O)[C@@H](NC(=O)[C@@H](Cc2ccccc2)NC(=O)CN2CCN(CC(=O)O)CCN(C(=O)Cn3cc(F)c(=O)[nH]c3=O)CCN(CC(=O)O)CC2)CSSC[C@@H](C(=O)N[C@H](CO)[C@@H](C)O)NC1=O` [^68Ga-MMC(5-FU)-TOC, metal not drawn], for which the tissue uptake in series [1] is less than 5 %ID/g. Besides, in the series with AR42J xenografts, the “location of the majority of the injected dose” value is “either the tumor or kidneys”. For the same molecule, the “localization in PET/CT images” value in the series on AR42J tumor was “primarily in the tumor, the kidneys, and the bladder”. Besides, in series [2], the “binding to IMR-32 cells” value was “good binding”. Besides, the “reduction in binding on blocking with octreotide” value turned out to be 81.2% in series [2] (10-fold excess of octreotide) and 94.9% in series [2] (200-fold excess of octreotide).
